Laboratory results taken from PMC6778148 (2019).
One block for each binder: values may come before it.

Columns and labels:
[1] = target: T1, PSD-95-12, purified tandem PDZ domains of PSD-95 (rat, UniProt P31016 61-249); assay: ITC
[2] = target: T1, PSD-95-12, purified tandem PDZ domains …
[3] = target: SAP97-12, purified tandem PDZ domains of SAP97 (rat, UniProt Q62696 220-408); assay: competition against divalent ligand
[4] = target: T2, SAP102-12, purified tandem PDZ domains of SAP102 (rat, UniProt Q62936 145-333); assay: competition against divalent ligand
T2 chain: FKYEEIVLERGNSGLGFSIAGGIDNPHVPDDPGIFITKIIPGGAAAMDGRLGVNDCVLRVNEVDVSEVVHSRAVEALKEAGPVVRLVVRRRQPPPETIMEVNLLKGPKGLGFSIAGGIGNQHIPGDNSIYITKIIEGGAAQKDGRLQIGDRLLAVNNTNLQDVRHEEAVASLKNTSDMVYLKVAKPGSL

[5] = target: PSD-93-12, purified tandem PDZ domains of PSD-93 (rat, UniProt Q63622 93-282); assay: competition against divalent ligand
[6] = target: T1, PSD-95-12, purified tandem PDZ domains …; assay: SPR

T1 sequence (P31016 61-249): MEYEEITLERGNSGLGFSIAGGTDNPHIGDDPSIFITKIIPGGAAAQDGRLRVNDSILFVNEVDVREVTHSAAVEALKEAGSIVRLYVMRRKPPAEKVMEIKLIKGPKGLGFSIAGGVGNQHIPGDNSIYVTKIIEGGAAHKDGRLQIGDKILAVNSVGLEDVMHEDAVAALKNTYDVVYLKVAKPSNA
PSD-93-12, purified tandem PDZ domains of PSD-93, sequence (Q63622 93-282): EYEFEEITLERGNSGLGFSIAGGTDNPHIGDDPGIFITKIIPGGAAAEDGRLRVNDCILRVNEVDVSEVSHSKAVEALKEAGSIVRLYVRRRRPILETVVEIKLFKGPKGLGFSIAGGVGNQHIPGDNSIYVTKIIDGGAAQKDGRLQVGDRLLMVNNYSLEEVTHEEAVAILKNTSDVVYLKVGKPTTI
SAP97-12, purified tandem PDZ domains of SAP97, sequence (Q62696 220-408): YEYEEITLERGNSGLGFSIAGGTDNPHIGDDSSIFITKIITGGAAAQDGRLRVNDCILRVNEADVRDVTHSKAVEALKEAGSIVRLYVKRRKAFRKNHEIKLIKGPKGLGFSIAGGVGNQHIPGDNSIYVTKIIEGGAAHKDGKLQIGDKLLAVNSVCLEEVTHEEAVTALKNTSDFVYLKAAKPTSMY

B1: Xph18, evolved ^10FN3 domain (recombinant) (designed binder)
chain: SSVSSVPTKLEVVAATPTSLLISWDAHSRMAWVNYYRITYGETGGNSPVQEFTVPGSSSTATISGLSPGVDYTITVYANGGGFRRGMAPISINYRT
Kd [1]: 820 nM

B3: Xph15, evolved ^10FN3 domain (recombinant) (designed binder)
chain: SSVSSVPTKLEVVAATPTSLLISWDAGPRNVSYYRITYGETGGNSPVQEFTVPGSSSTATISGLSPGVDYTITVYASGHVSTLMTPISINYRT
Kd [1]: 2200 nM

Other lines, results leading:

Ki [2]: 36 nM
Ki [3]: 900 nM
Ki [4]: 1440 nM
Ki [5]: 261 nM
B2: Xph20-ETWV (designed binder)
chain: MASHHHHHHHHHHENLYFQSGSGSSVSSVPTKLEVVAATPTSLLISWDAVAKNVKVGYYRITYGETGGNSPVQEFTVPGSSSTATISGLKPGVDYTITVYANGVLSKMVLPISINYRTLEGGSGGSGGSGGSGGSGGSGGSGGSGGSGGSGGSGGSGTETWV

koff [6]: 0.068 s⁻¹
B4: biotinylated Xph20 (designed binder)
chain: SSVSSVPTKLEVVAATPTSLLISWDAVAKNVKVGYYRITYGETGGNSPVQEFTVPGSSSTATISGLKPGVDYTITVYANGVLSKMVLPISINYRT
modifications: biotin on the biotin acceptor peptide
